Source: patent publication US20240011005A1 (HUIDAGENE THERAPEUTICS, published 2024)
Positions count from the first letter of the chain named.

Legend:
Assay in all cases: cell_activity
[1] = target: T1, Un1Cas12f1_ge4.1 (Uncultured bacterium) (UniProt A0A482D308); conditions: PAM TTTG per Table 1; 36.1 in Rh screen
T1 sequence: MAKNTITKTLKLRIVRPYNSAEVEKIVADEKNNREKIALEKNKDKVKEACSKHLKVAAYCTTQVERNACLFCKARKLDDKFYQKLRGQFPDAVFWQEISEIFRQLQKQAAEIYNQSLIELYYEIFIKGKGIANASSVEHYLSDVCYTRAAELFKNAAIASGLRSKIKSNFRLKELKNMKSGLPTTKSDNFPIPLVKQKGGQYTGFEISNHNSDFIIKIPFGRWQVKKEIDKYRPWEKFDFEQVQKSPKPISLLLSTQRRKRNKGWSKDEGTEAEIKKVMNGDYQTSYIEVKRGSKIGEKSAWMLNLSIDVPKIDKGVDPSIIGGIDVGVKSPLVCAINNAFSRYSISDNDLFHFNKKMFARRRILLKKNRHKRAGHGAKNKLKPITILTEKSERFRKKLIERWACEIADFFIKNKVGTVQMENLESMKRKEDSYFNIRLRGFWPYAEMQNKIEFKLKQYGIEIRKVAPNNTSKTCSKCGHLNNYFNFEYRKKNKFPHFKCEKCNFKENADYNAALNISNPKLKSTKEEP

[2] = tested on: T2, RhCas12f1 (ME-A.1) (Ruminiclostridium herbifermentans); conditions: PAM CCCA, HEK293T
T2 sequence: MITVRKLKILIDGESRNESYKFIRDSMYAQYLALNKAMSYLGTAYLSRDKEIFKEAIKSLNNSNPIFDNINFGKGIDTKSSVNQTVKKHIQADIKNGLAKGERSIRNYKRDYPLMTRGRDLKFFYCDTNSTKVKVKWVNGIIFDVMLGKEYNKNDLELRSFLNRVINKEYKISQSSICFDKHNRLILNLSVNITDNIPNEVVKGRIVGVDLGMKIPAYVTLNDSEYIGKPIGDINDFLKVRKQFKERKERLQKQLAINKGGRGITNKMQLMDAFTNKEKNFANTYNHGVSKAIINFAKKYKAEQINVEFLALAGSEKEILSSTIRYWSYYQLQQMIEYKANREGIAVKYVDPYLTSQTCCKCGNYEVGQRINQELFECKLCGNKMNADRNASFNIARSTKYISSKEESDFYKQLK

[3] = tested on: T3, RhCas12f1-A273R A273R (Ruminiclostridium herbifermentans); conditions: PAM CCCA
T3 sequence: T2 sequence with A273R

[4] = tested on: T4, RhCas12f1-A56R A56R (Ruminiclostridium herbifermentans); conditions: PAM CCCA
T4 sequence: T2 sequence with A56R

[5] = tested on: T5, RhCas12f1-I264R I264R (Ruminiclostridium herbifermentans); conditions: PAM CCCA
T5 sequence: T2 sequence with I264R

[6] = tested on: T6, RhCas12f1-L270R (enRhCas12f1) (Ruminiclostridium herbifermentans); conditions: PAM CCCA
T6 sequence: T2 sequence with L270R

[7] = tested on: T7, RhCas12f1-S130R S130R (Ruminiclostridium herbifermentans); conditions: PAM CCCA
T7 sequence: T2 sequence with S130R

[8] = tested on: T8, RhCas12f1-T131R T131R (Ruminiclostridium herbifermentans); conditions: PAM CCCA
T8 sequence: T2 sequence with T131R

[9] = tested on: T9, RhCas12f1-Y125R Y125R (Ruminiclostridium herbifermentans); conditions: PAM CCCA
T9 sequence: T2 sequence with Y125R

Row | Sequence | activity [1] | activity [2] | activity [3] | activity [4] | activity [5] | activity [6] | activity [7] | activity [8] | activity [9]
1 | ACCGCUUCACUUAGAGUGAAGGUGGGCUGCUUGCAUCAGCCUAAUGUCGAGAAGUGCUUUCUUCGGAAAGUAACCCUCGAAACAAAGAAAGGAAUGCAACCCAUUACAGUAGGAGCAUACUUUUAUUUUUUU / TTTGCCATTACAGTAGGAGCATAC / GTATGCTCCTACTGTAATGGCAAA [Un1Cas12f1_ge4.1 sgRNA ; reporter insertion, TTTG PAM] | 36.5 % GFP+ |  |  |  |  |  |  |  | 
2 | ACGGUUGAUUUAGCAACCGAAGUCUGAGGGCAUGUAGAAAAAAGUAUAGGUAUAUACCAACAUACUUGCAUUGCCACUCGGAAAGGGUUAACCUUGGUCAUUGUGUUACCGACCAAGCAUUCCAGAAAUGGAAUGUAAAUCCAUUACAGUAGGAGCAUACUUUUAUUUUUUU / CCCACCATTACAGTAGGAGCATAC / GTATGCTCCTACTGTAATGGTGGG |  | 61.5 % GFP+ | 75.3 % GFP+ | 73 % GFP+ | 75 % GFP+ | 73.8 % GFP+ | 76.1 % GFP+ | 77.2 % GFP+ | 73.3 % GFP+
